{"source": "patent US6962973B1", "about": "“Porcine α2δ-1 calcium channel subunit cDNA and soluble secreted α2δ-1 subunit polypeptides” (Warner-Lambert Company, priority 1999, dated 2005)", "molecules": {"B1": {"name": "mutant extending to residue 1018: C-terminally truncated porcine α2δ-1 subunit, residues 1019 to 1091 deleted (protein, listed as Sus scrofa)", "chain": "MAAGCLLALTLTLFQSLLIGPSSQEPFPSAVTIKSWVDKMQEDLVTLAKTASGVNQLVDIYEKYQDLYTVEPNNARQLVEIAARDIEKLLSNRSKALVRLALEAEKVQAAHQWREDFASNEVVYYNAKDDLDPEKNDSEPGSQRIKPVFIDDANFGRQISYQHAAVHIPTDIYEGSTIVLNELNWTSALDEVFKKNREEDPSLLWQVFGSATGLARYYPASPWVDNSRTPNKIDLYDVRRRPWYIQGAASPKDMLILVDVSGSVSGLTLKLIRTSVSEMLETLSDDDFVNVASFNSNAQDVSCFQHLVQANVRNKKVLKDAVNNITAKGITDYKKGFSFAFEQLLNYNVSRANCNKIIMLFTDGGEERAQEIFAKYNKDKKVRVFTFSVGQHNYDRGPIQWMACENKGYYYEIPSIGAIRINTQEYLDVLGRPMVLAGDKAKQVQWTNVYLDALELGLVITGTLPVFNITGQNENKTNLKNQLILGVMGVDVSLEDIKRLTPRFTLCPNGYYFAIDPNGYVLLHPNLQPKNPKSQEPVTLDFLDAELENDIKVEIRNKMIDGESGEKTFRTLVKSQDERYIDKGNRTYTWTPVNGTDYSLALVLPTYSFYYIKAKIEETITQARSKKGKMKDSETLKPDNFEESGYTFIAPRDYCNDLKISDNNTEFLLNFNEFIDRKTPNNPSCNTDLINRVLLDAGFTNELVQNYWSKQKNIKGVKARFVVTDGGITRVYPKEAGENWQENPETYEDSFYKRSLDNDNYVFTAPYFNKSGPGAYESGIMVSKAVEIYIQGKLLKPAVVGIKIDVNSWIENFTKTSIRDPCAGPVCDCKRNSDVMDCVILDDGGFLLMANHDDYTNQIGRFFGEIDPSLMRHLVNISVYAFNKSYDYQSVCEPGAAPKQGAGHRSAYVPSIADILHIGWWATAAAWSILQQFLLSLTFPRLLEAVEMEDDDFTASLSKQSCITEQTQYFFDNDSKSFSGVLDCGNCSRIFHVEKLMNTNLIFIMVESKGTCPCDTRL"}, "B2": {"name": "mutant extending to residue 1036: C-terminally truncated porcine α2δ-1 subunit, residues 1037 to 1091 deleted (protein, listed as Sus scrofa)", "chain": "MAAGCLLALTLTLFQSLLIGPSSQEPFPSAVTIKSWVDKMQEDLVTLAKTASGVNQLVDIYEKYQDLYTVEPNNARQLVEIAARDIEKLLSNRSKALVRLALEAEKVQAAHQWREDFASNEVVYYNAKDDLDPEKNDSEPGSQRIKPVFIDDANFGRQISYQHAAVHIPTDIYEGSTIVLNELNWTSALDEVFKKNREEDPSLLWQVFGSATGLARYYPASPWVDNSRTPNKIDLYDVRRRPWYIQGAASPKDMLILVDVSGSVSGLTLKLIRTSVSEMLETLSDDDFVNVASFNSNAQDVSCFQHLVQANVRNKKVLKDAVNNITAKGITDYKKGFSFAFEQLLNYNVSRANCNKIIMLFTDGGEERAQEIFAKYNKDKKVRVFTFSVGQHNYDRGPIQWMACENKGYYYEIPSIGAIRINTQEYLDVLGRPMVLAGDKAKQVQWTNVYLDALELGLVITGTLPVFNITGQNENKTNLKNQLILGVMGVDVSLEDIKRLTPRFTLCPNGYYFAIDPNGYVLLHPNLQPKNPKSQEPVTLDFLDAELENDIKVEIRNKMIDGESGEKTFRTLVKSQDERYIDKGNRTYTWTPVNGTDYSLALVLPTYSFYYIKAKIEETITQARSKKGKMKDSETLKPDNFEESGYTFIAPRDYCNDLKISDNNTEFLLNFNEFIDRKTPNNPSCNTDLINRVLLDAGFTNELVQNYWSKQKNIKGVKARFVVTDGGITRVYPKEAGENWQENPETYEDSFYKRSLDNDNYVFTAPYFNKSGPGAYESGIMVSKAVEIYIQGKLLKPAVVGIKIDVNSWIENFTKTSIRDPCAGPVCDCKRNSDVMDCVILDDGGFLLMANHDDYTNQIGRFFGEIDPSLMRHLVNISVYAFNKSYDYQSVCEPGAAPKQGAGHRSAYVPSIADILHIGWWATAAAWSILQQFLLSLTFPRLLEAVEMEDDDFTASLSKQSCITEQTQYFFDNDSKSFSGVLDCGNCSRIFHVEKLMNTNLIFIMVESKGTCPCDTRLLIQAEQTSDGPDPCDMVK"}, "B3": {"name": "mutant extending to residue 1063: C-terminally truncated porcine α2δ-1 subunit, residues 1064 to 1091 deleted (protein, listed as Sus scrofa)", "chain": "MAAGCLLALTLTLFQSLLIGPSSQEPFPSAVTIKSWVDKMQEDLVTLAKTASGVNQLVDIYEKYQDLYTVEPNNARQLVEIAARDIEKLLSNRSKALVRLALEAEKVQAAHQWREDFASNEVVYYNAKDDLDPEKNDSEPGSQRIKPVFIDDANFGRQISYQHAAVHIPTDIYEGSTIVLNELNWTSALDEVFKKNREEDPSLLWQVFGSATGLARYYPASPWVDNSRTPNKIDLYDVRRRPWYIQGAASPKDMLILVDVSGSVSGLTLKLIRTSVSEMLETLSDDDFVNVASFNSNAQDVSCFQHLVQANVRNKKVLKDAVNNITAKGITDYKKGFSFAFEQLLNYNVSRANCNKIIMLFTDGGEERAQEIFAKYNKDKKVRVFTFSVGQHNYDRGPIQWMACENKGYYYEIPSIGAIRINTQEYLDVLGRPMVLAGDKAKQVQWTNVYLDALELGLVITGTLPVFNITGQNENKTNLKNQLILGVMGVDVSLEDIKRLTPRFTLCPNGYYFAIDPNGYVLLHPNLQPKNPKSQEPVTLDFLDAELENDIKVEIRNKMIDGESGEKTFRTLVKSQDERYIDKGNRTYTWTPVNGTDYSLALVLPTYSFYYIKAKIEETITQARSKKGKMKDSETLKPDNFEESGYTFIAPRDYCNDLKISDNNTEFLLNFNEFIDRKTPNNPSCNTDLINRVLLDAGFTNELVQNYWSKQKNIKGVKARFVVTDGGITRVYPKEAGENWQENPETYEDSFYKRSLDNDNYVFTAPYFNKSGPGAYESGIMVSKAVEIYIQGKLLKPAVVGIKIDVNSWIENFTKTSIRDPCAGPVCDCKRNSDVMDCVILDDGGFLLMANHDDYTNQIGRFFGEIDPSLMRHLVNISVYAFNKSYDYQSVCEPGAAPKQGAGHRSAYVPSIADILHIGWWATAAAWSILQQFLLSLTFPRLLEAVEMEDDDFTASLSKQSCITEQTQYFFDNDSKSFSGVLDCGNCSRIFHVEKLMNTNLIFIMVESKGTCPCDTRLLIQAEQTSDGPDPCDMVKQPRYRKGPDVCFDNNALEDYTDCGGVS"}}, "data": [{"test": "[3H]gabapentin binding of C-terminally truncated porcine α2δ-1 subunit mutants expressed in COS-7 cells", "conditions": "C-terminal deletions of the δ component, residues of SEQ ID NO:5", "experimental": "All media contained 50 units/ml penicillin and 50 microgramm per ml streptomycin. COS-7 cells were maintained in Dulbecco's modified Eagle's medium+glutamax, 10% fetal bovine serum (gamma irradiated) in a 37° C./5% CO2 incubator and passaged by trypsinization. For transient expression experiments, 150-mm culture dishes were seeded with […] and incubated for 16 h. Cells were then washed twice with 30 ml of optiMEM-1 and transfected (t=0 h) with 30 microgramm of plasmid DNA by lipofectamine-mediated transfection in 21 ml of optiMEM-1. At t=6 h, a further 21 ml of optiMEM-1 was added. At t=24 h, the medium was replaced with 42 ml of optiMEM-1. At t=48 h, the cells were washed twice with 30 ml of phosphate-buffered saline and then harvested in 3 ml of buffer A ([…], 1 mM EGTA, 20% glycerol, 10 mm HEPES, pH 7.4, at 4° C.) plus 0.1 mM phenymethylsulfonyl fluoride using a cell scraper.\nAll subsequent operations were performed at 4° C. The cells were rotated on a Spiramix (Denley Instruments) for 30 min, centrifuged at 20,000×g for 5 min, resuspended in 1 ml of buffer A, recentrifuged at 20,000×g for 5 min, and finally resuspended in 400 microliter of buffer A. Membrane preparations were stored at −70° C. until required.\nProtein concentrations were determined by the method of Bradford using bovine serum albumin as a standard. [^3H]Gabapentin binding assays were performed as described previously. For saturation analysis, incubations were performed in duplicate. All other incubations were performed in triplicate. SDS-polyacrylamide gel electrophoresis and Western blotting were performed using the Novex gel and buffer system (Novex Europe, Frankfurt, Germany). Molecular weights were determined by reference to Kaleidoscope markers (Bio-Rad). Detection was performed using the ECL system (Amersham).", "values": [{"molecule": "B1", "[^3H]gabapentin binding": "exhibit gabapentin binding activity"}, {"molecule": "B2", "[^3H]gabapentin binding": "exhibit gabapentin binding activity"}, {"molecule": "B3", "[^3H]gabapentin binding": "exhibit gabapentin binding activity"}]}]}
